The text below walks through data of patent US20190022241A1 (AbbVie / Abbott, published 2019).

Numbering of substitutions follows the chain as printed.

B1: SC17.121 (antibody, V domains shown)
VH: EVQLQQSGPELMKPGASVKMSCKASGYTFTDHNIHWVKQHQGKSLEWIGEINPNTGGTGYNQKFQGKATMTVDKSSSTAYMELRSLTSEDSAVYYCVRGLYFFDYWGQGTTLTVSS
VL: QIVLTQSPAIMSASPGEKVTMTCSASSSVSYMHWYQQKSGTSPKRWIYDTSKLASGVPARFSGSGSGTSYSLTISSMETEDAATYYCQQWSNTPPTFGSVTKLEIK
notes: murine mAb
B2: SC17.191 (antibody, V domains shown)
VH: EVQLQQSGPELMKPGASVKMSCKASGYTFTDYNMHWVKQNQGKSLEWIGEINPNTGGTGYNQKFKDKATLTVDKSSSTAYMELRSLTSEDSAVYYCARIPSLRRYYFDYWGQGTTLTVSS
VL: B1 VL with S62T, T79A, N92S, T93S, S99A, V100G, I105L
notes: murine mAb
B3: SC17.102 (antibody, V domains shown)
VH: EVQLQQSGPELMKPGASVKMSCKASGDTFTDYNIHWVKQNQGKSLEWIGEVNPNIGGIGYNQKFKGKATLTVDKSSSTAYMELRSLTSEDSAVYYCAMGRWYFDVWGAGTTVTVSS
VL: B1 VL with A59P, S64R, T79A, Q89H, N92S, T93N, S99A, V100G, I105M
notes: murine mAb
B4: SC17.193 (antibody, V domains shown)
VH: QVTLKESGPGILQPSQTLSLTCSFSGFSLITYGIGVGWIRQPSGKGLEWLAHIWWNDNKYYNTALKSRLTISKDTSNNQVFLKIANVDTADTATYYCARMVYYDYDGGFAYWGQGTLVTVSA
VL: DLVLTQSPASLAVSLGQRATISCRASESVSTSGYSYMHWYQQKPGQPPKLLIYLASNLESGVPARFSGSGSGTDFTLNIHPVEEEDATTYYCQHSRELPYTFGGGTKLEIK
notes: murine mAb
B5: SC17.93 (antibody, V domains shown)
VH: QVQLQQPGAELVKPGASVMLSCKASGYTFTSYWVHWVKQRPGQGLEWIGVINPRNGRNNYNEKFKTKATLTVDKSSSTAYMQLSSPTSEDSAVYYCAREDYDGGDYAMDYWGQGTSVTVSS
VL: DIVMSQSPSSLAVSVGEKVTMTCKSSQSLLYSSNQKNYLAWYQQKPGQSPKLLIYWASTRESGVPDRFIGSGSGTDFTLTISSVKAEDLAIYYCQQYYRYPLTFGAGTKLELK
notes: murine mAb
B6: SC17.156 (antibody, V domains shown)
VH: QVTLKESGPGILQPSQTLSLTCSFSGFSLSTSGMGVSWIRKTSGKGLEWLAHIFWDDDKWYNPSLKSRLTISKATSSNQVFLILTSVDTADTATYYCATFYGLYFAYWGQGTTLTVSS
VL: DVVMTQSPLSLPVSLGDQASISCRSSQSIVHSNGNTYLEWYLQKPGQSPKLLIYKVSNRFSGVPDRFSGSGSGTDFTLKISRVEAEDLGVYYCFQGSHVPPTFGGGTKLEIK
notes: murine mAb
B7: SC17.56 (antibody, V domains shown)
VL: B5 VL with T22S, I69T, I91V, Y93F, R99N, L102Y, A106G, L112I
V domain: QIQLVQSGPELKKPGETVKISCKASGYTFTNYGMNWVKQAPGKGLKWMAWINTYTGEPTYADDFKGRFAFSLETSASTASLQIINLKNEDTATYFCARIGDSSPSDYWGQGTTLTV
notes: murine mAb
B8: SC17.81 (antibody, V domains shown)
VH: EVQLQQSGAELVKPGASVKLSCTASGFNINDTYYHWLKQRPEQGLEWIGRIDPANVNTKYDPKFQGKATLTADTSSNTAYLQLSSLTSEDTAVYYCGRGNAYWGQGTLVTVSA
VL: DIVMSQSPSSLTVSVGEKVTLSCKSSQSLLYSTNQKIYLAWYQQKPGQSPKLLIYWASTRESGVPDRFTGSGSGTDFTLAISNVKAEDLAVYYCQQYYSYPYTFGGGTKLEIK
notes: murine mAb
B9: SC17.151 (antibody, V domains shown)
VH: EVQLQQSGTVLARPGASVKMSCKASGYTFTSYWMHWVKQRPGQGLEWIGAIYPGKNDTTYNQKFKGKAKLTAVTSASTLYMELSSLTNEDSAVYYCTRSGKGYFAYWGQGTLVTVSA
VL: DIVLTQFPASLAVSLGQRATIPCRASESVDSYGNSFMHWFQQKPGQPPKLLIYRASNLESEIPARFSGSGSGTDFTLTINPVEADDVATYYCQQSHEDPYTFGGGTKMEIK
notes: murine mAb
B10: SC17.120 (antibody, V domains shown)
VH: EVQLEQSGTVLARPGASVKMSCKASGYTFTSYWMHWVKQRPGQGLEWIGAFYPGNSGTYYNQKFKDKAKLTAVTSASTAYMELSSLTNEDSAVYYCSRSGSGRFAYWGQGTLVTVSA
VL: B9 VL with F7S, P22S, F40Y, L50V, E61G, G72R, A84D, D85E, H96N, M108L
notes: murine mAb
B11: SC17.199 (antibody, V domains shown)
VH: EVQLQQSGTVLARPGASVRMSCKASGYTFTSYWMHWVKQRPGQGLEWIGAIYPGNSDTSYNHKFKGKAKLTAVTSASTAYMELSSLTNEDSAVYYCTRSGTGWFAYWGQGTLVTVS
VL: B9 VL with F7S, P22S, F40Y, L50P, E61G, G72R, H96N, M108L
notes: murine mAb
B12: SC17.9 (antibody, V domains shown)
VH: QVQLQQPGAEIVRPGASVKLSCKASGYTFTDYWMNWVKQRPGQGLEWIGAIDPSDSYTSYNPKFKGKATLTVDTSSSSAYMQLSSLTSEDSAVYFCARRGTPGKPLVYWGQGTLVTVSA
VL: DIVMSQSPSSLAVSVGEKVTMSCKSSQSLLYSSNQKNYLAWYQQKPGQSPKLLIYWASTRESGVPDRFTGSGSGTDFTLTISSVKAEDLAVYFCQQYYNYPYTFGGGTKLK
notes: murine mAb
B13: SC17.114 (antibody, V domains shown)
VH: EVQLQQSGPEMVKPGASVKISCKASGYTFTDYYMHWVKQSHGKSLEWIGRVNTNNGGTSYDQKFEGKATLTVDKSSSTAYMELNSLTSEDSAVYYCVIPAWFAYWGQGTLVTVSA
VL: B6 VL with I29L, E39H, N58S, Y92F, F94S, G96S, S97T, P101F, G105S
notes: murine mAb

The target in one assay is T1, SEZ6 Sushi Domain 4 (amino acids 750-813) on yeast (human, UniProt Q53EL9 769-832).
T1 construct: yeast display
As to the kind of experiment: yeast display, flow cytometry.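 Further: antibody binding to individual SEZ6 domains displayed on yeast, measured by flow cytometry, antibody at 50 nM purified or hybridoma supernatant diluted 1:2, 90 min on ice.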 A general note: A flow cytometer gives signals particle by particle.
For the molecule B1, the binding result is recorded as “binds”.

Take B2: the binding result is on record as “binds”.

Consider B3, for which the binding result is on record as “binds”.

Take B4: the binding result is recorded as “binds”.

B5: the binding result is “binds”.

With B6, the binding result is “binds”.

The target in another assay is T2, SEZ6 N1 (amino acids 1-70) on yeast (human, UniProt Q53EL9 20-89).
T2 construct: yeast display
T2 sequence: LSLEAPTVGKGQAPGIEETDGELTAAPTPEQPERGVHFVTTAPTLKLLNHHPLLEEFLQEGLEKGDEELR
The experiment in a line: yeast display, flow cytometry.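 Further: antibody binding to individual SEZ6 domains displayed on yeast, measured by flow cytometry, antibody at 50 nM purified or hybridoma supernatant diluted 1:2, 90 min on ice.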
Regarding B7, the binding result is “binds”.

Turning to B8, the binding result is given as “binds”.

As for B9, the binding result was “binds”.

In the case of B10, the binding result is reported as “binds”.

As for B11, the binding result is “binds”.

Consider B12, for which the binding result was “binds”.

For B13, the binding result is given as “binds”.
